# Source: PMC3469540
# System: PSC (Posterior Sex Combs) (Drosophila)
# Assay: centrifugation (array oligomerization)
# Conditions: 50% of template pelleted; saturates at 2 PSC per nucleosome; not an affinity; Buffer, salt, pH and temperature of the nucleic acid binding assays not given in the material; EMSA on 0.8% agarose, 0.5X TBE after glutaraldehyde …
substance,measurement,value
12-nucleosome array,K half (PSC per nucleosome),0.25
